# Where a chain is given by its changes, count along the chain named.
# T1: MERS Receptor Binding Domain (RBD) protein (MERS virus, UniProt K9N5Q8 367-606)
# T1 construct: also called Middle East Respiratory Syndrome (MERS) virus
# T1 sequence: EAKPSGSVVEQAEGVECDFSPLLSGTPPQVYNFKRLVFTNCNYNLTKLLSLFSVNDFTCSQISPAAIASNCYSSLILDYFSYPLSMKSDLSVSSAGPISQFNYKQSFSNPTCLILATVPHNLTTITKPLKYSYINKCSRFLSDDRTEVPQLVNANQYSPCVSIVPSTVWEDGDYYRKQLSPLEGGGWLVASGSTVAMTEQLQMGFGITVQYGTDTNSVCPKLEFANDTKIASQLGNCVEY
# B1: COVID19_P09_D06 (scFv, V domains shown)
# VH: QVQLVQSGAEVKKPGSSVKVSCKASGYGFITYWIGWVRQAPGQGLEWMGIIYPGDSETRYAQKFQGRVTITADESTSTAYMELSSLRSEDTAVYYCAGGSGIYVPMDVWGQGTLVTVSS
# VL: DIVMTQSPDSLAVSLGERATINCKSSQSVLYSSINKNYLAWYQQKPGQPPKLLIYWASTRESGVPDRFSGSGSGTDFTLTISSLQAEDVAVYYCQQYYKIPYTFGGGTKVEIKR
# B2: COVID19_P22_B04 (scFv, V domains shown)
# VH: B1 VH with S100E, Y103S, V104T
# VL: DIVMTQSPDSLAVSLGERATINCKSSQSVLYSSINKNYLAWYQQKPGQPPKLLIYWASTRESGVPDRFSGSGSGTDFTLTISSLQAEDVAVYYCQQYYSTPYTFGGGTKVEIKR
# B3: COVID19_P21_H01 (scFv, V domains shown)
# VH: B1 VH with I30S, I50W, Y52N, G54N, D55S, S56G, E57G, R59N, Y103S, V104T
# VL: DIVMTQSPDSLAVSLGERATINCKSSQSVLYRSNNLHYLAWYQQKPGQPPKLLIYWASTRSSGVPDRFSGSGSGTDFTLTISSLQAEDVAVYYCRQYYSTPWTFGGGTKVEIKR
# B4: COVID19_P22_G12 (scFv, V domains shown)
# VH: B1 VH with Y27G, A61S, Y103S, V104T
# VL: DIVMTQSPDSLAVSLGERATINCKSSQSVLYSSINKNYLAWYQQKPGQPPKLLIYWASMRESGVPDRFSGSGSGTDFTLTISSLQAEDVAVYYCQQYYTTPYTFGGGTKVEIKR
# B5: COVID19_P22_C09 (scFv, V domains shown)
# VH: QVQLVQSGAEVKKPGSSVKVSCKASGYNFTDYHIQWVRQAPGQGLEWVGMIIPRHGGTAYAQRFQGRVTITADESTSTAYMELSSLRSEDTAVYYCAGGSGLTTPMDVWGQGTLVTVSS
# VL: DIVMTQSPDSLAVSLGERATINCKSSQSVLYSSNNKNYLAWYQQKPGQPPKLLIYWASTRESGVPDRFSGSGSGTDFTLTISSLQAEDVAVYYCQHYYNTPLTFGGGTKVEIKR
# B6: COVID19_P21_B08 (scFv, V domains shown)
# VH: QVQLVQSGAEVKKPGSSVKVSCKASGGTFSSYAISWVRQAPGQGLEWMGVINTGGGSVTYAQKFQGRVTITADESTSTAYMELSSLRSEDTAVYYCAGHWGISTPMDVWGQGTLVTVSS
# VL: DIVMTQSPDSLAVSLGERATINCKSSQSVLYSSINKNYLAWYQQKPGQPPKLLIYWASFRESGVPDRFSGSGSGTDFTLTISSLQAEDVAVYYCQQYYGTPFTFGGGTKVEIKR
# B7: COVID19_P21_F08 (scFv, V domains shown)
# VH: B6 VH with S31T, I34F, S35N, H99G, W100S, M106G, D107A
# VL: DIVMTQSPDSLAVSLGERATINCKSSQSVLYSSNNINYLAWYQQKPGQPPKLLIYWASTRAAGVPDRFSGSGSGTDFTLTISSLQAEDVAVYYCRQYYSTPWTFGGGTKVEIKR
# B8: COVID19_P09_A09 (scFv, V domains shown)
# VH: QVQLVQSGAEVKKPGSSVKVSCKASGGTFSSYAISWVRQAPGQGLEWMGIIYPGDSTTRYSQKFQGRVTITADESTSTAYMELSSLRSEDTAVYYCYSGSGISTPMDVWGQGTLVTVSS
# VL: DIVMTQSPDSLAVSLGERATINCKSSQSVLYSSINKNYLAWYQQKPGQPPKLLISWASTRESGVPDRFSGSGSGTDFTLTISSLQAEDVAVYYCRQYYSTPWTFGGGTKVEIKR
# B9: COVID19_P22_B12 (scFv, V domains shown)
# VH: B8 VH with F29L, T57E, Y97A, S98G, M106R, D107S
# VL: DIVMTQSPDSLAVSLGERATINCKSSRILSYSPDNKNYLAWYQQKPGQPPKLLIYWASTRESGVPDRFSGSGSGTDFTLTISSLQAEDVAVYYCQQSYITPYTFGGGTKVEIKR
# Legend:
# [1] = biological target: SARS-CoV-2 Receptor Binding Domain (RBD) protein (SARS-CoV-2, UniProt P0DTC2 319-541)
# [2] = biological target: T2, SARS-CoV-1 Receptor Binding Domain (RBD) protein (SARS-CoV-1, UniProt P59594 306-527); assay: SPR; clone listed as COV2 only at the 21st table, row 45, column 3
# T2 construct: also called SARS1
# [3] = biological target: T1, MERS Receptor Binding Domain (RBD) …; assay: as above
# [4] = biological target: T2, SARS-CoV-1 Receptor Binding Domain …; assay: SPR; clone listed as COV2 only at the 21st table, row 43, column 3
# [5] = biological target: T1, MERS Receptor Binding Domain (RBD) …; assay: as above
# [6] = biological target: T2, SARS-CoV-1 Receptor Binding Domain …; assay: SPR; clone listed as COV2 only at the 21st table, row 51, column 3
# [7] = biological target: T1, MERS Receptor Binding Domain (RBD) …; assay: as above
# [8] = biological target: T2, SARS-CoV-1 Receptor Binding Domain …; assay: SPR; clone listed as COV2 only at the 21st table, row 8, column 3
# [9] = biological target: T1, MERS Receptor Binding Domain (RBD) …; assay: as above
# [10] = biological target: T2, SARS-CoV-1 Receptor Binding Domain …; assay: SPR; clone listed as COV2 only at the 21st table, row 52, column 3
# [11] = biological target: T1, MERS Receptor Binding Domain (RBD) …; assay: as above
# [12] = biological target: T2, SARS-CoV-1 Receptor Binding Domain …; assay: SPR; clone listed as COV2 only at the 21st table, row 34, column 3
# [13] = biological target: T1, MERS Receptor Binding Domain (RBD) …; assay: as above
# [14] = biological target: T2, SARS-CoV-1 Receptor Binding Domain …; assay: SPR; clone listed as COV2 only at the 21st table, row 35, column 3
# [15] = biological target: T1, MERS Receptor Binding Domain (RBD) …; assay: as above
# [16] = biological target: T2, SARS-CoV-1 Receptor Binding Domain …; assay: SPR; clone listed as COV2 only at the 21st table, row 36, column 3
# [17] = biological target: T1, MERS Receptor Binding Domain (RBD) …; assay: as above
# [18] = biological target: T2, SARS-CoV-1 Receptor Binding Domain …; assay: SPR; clone listed as COV2 only at the 21st table, row 37, column 3
# [19] = biological target: T1, MERS Receptor Binding Domain (RBD) …; assay: as above
binder,measurement,setting,value
B1,Kd,[1],0.0164 µM
same,koff,[1],0.00538 s⁻¹
same,kon,[1],328000 M⁻¹ s⁻¹
same,binding result,[2],no binding (tested: up to 300 nM)
same,binding result,[3],no binding (tested: up to 300 nM)
B2,Kd,[1],0.0261 µM
same,koff,[1],0.015 s⁻¹
same,kon,[1],570000 M⁻¹ s⁻¹
same,binding result,[4],no binding (tested: up to 300 nM)
same,binding result,[5],no binding (tested: up to 300 nM)
B3,Kd,[1],0.00138 µM
same,koff,[1],0.00022 s⁻¹
same,kon,[1],160000 M⁻¹ s⁻¹
same,binding result,[6],no binding (tested: up to 300 nM)
same,binding result,[7],no binding (tested: up to 300 nM)
B4,binding result,[8],no binding (tested: up to 300 nM)
same,binding result,[9],no binding (tested: up to 300 nM)
same,Kd,[1],0.0383 µM
same,koff,[1],0.016 s⁻¹
same,kon,[1],410000 M⁻¹ s⁻¹
B5,binding result,[10],no binding (tested: up to 300 nM)
same,binding result,[11],no binding (tested: up to 300 nM)
same,Kd,[1],0.0328 µM
same,koff,[1],0.0083 s⁻¹
same,kon,[1],250000 M⁻¹ s⁻¹
B6,Kd,[1],0.00295 µM
same,koff,[1],0.000344 s⁻¹
same,kon,[1],117000 M⁻¹ s⁻¹
same,binding result,[12],no binding (tested: up to 300 nM)
same,binding result,[13],no binding (tested: up to 300 nM)
B7,Kd,[1],0.0163 µM
same,koff,[1],0.000893 s⁻¹
same,kon,[1],54900 M⁻¹ s⁻¹
same,binding result,[14],no binding (tested: up to 300 nM)
same,binding result,[15],no binding (tested: up to 300 nM)
B8,Kd,[1],0.0005 µM
same,koff,[1],5.7e-05 s⁻¹
same,kon,[1],109000 M⁻¹ s⁻¹
same,binding result,[16],no binding (tested: up to 300 nM)
same,binding result,[17],no binding (tested: up to 300 nM)
B9,binding result,[18],no binding (tested: up to 300 nM)
same,binding result,[19],no binding (tested: up to 300 nM)
same,Kd,[1],0.00424 µM
same,koff,[1],0.00036 s⁻¹
same,kon,[1],85000 M⁻¹ s⁻¹
